Measurements reported in patent US7423017B2, “Method for treating cartilage disorders” (Genentech, Inc., priority 1997, dated 2008).

B1: Ala(1-3)-IGF: triple alanine mutant substituting the first three N-terminal amino acids of IGF-1 (protein)
chain: AAATLCGAELVDALQFVCGDRGFYFNKPTGYGSSSRRAPQTGIVDECCFRSCDLRRLEMYCAPLKPAKSVSGGGSGSGDFDYEKMANANKGAMTENADENALQSDAKGKLDSVATDYGAAIDGFIGDVSGLANGNGATGDFAGSNSQMAQVGDGDNSPLMNNFRQYLPSLPQSVECRPFVFSAGKPYEFSIDCDKINLFRGVFAFLLYVATFMYVFSTFANILRNKES

Tests used:
IGFBP-3 = biological target: T1, IGFBP-3 (Homo sapiens, UniProt P17936); assay: competitive phage ELISA of IGF-1 mutants, IGFBP-3; type: binding; conditions: for IC50: phage display, soluble IGFBP-3 competitor; for larger effects on IGFBP-3 than on IGFBP-1 binding: phage ELISA
T1 construct: made in house
T1 sequence (P17936 28-291): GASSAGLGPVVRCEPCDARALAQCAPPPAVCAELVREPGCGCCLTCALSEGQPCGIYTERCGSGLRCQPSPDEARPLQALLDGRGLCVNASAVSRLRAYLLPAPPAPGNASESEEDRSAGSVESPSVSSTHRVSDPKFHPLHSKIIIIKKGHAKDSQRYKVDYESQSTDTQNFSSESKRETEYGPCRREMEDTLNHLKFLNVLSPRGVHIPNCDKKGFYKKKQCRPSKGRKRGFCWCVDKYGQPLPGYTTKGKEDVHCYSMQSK
Experimental: (§1) An alanine-scanning mutagenesis approach (Cunningham and Wells, Science, 244: 1081-1085 (1989); U.S. Pat. No. 5,834,250) was used to remove that portion of each side chain of IGF-1 beyond the beta carbon. The contribution of these atoms to the free energy of binding of the IGF-1 analog to IGFBP-1 or to IGFBP-3 was then assessed by competitive phage ELISA. In this assay, IGFBP-1 or IGFBP-3 is used to inhibit IGF-phage mutants from binding to an IGFBP-1- or IGFBP-3-coated immunosorbant plate.
(§2) Immunosorbent plates (Nunc, MAXISORP™, 96 wells) were coated with 100 μl/well of 1 μg/ml IGFBP-1 or IGFBP-3 in PBS buffer pH 7.2 at 4° C. overnight. The plates were then blocked with 0.5% TWEEN 20™/PBS (also used as binding buffer) for 2 hours at room temperature (proteinaceous blocking agents like bovine serum albumin were avoided to prevent potential IGF or IGFBP contamination). E. coli cells (XL1-Blue, Stratagene) freshly transformed with phagemid vector were grown overnight in 5 mL 2YT medium (Sambrook et al., supra) in the presence of M13-VCS helper phage (Stratagene). Phage particles were harvested and resuspended in PBS buffer as described in Lowman, H. B., “Phage Display of Peptide Libraries on Protein Scaffolds,” in Cabilly, S. (ed.), Combinatorial Peptide Library Protocols (Humana Press Inc.: Totowa, N.J., 1998), pp. 249-264. Then phage concentrations were normalized to yield a maximal ELISA signal of 0.2-0.4 for each mutant (Lowman, in Cabilly, S. (ed.), supra). Threefold serial dilutions of soluble competitor were prepared on non-absorbent microtiter plates (Nunc, F, 96 wells) with binding buffer (0.5% TWEEN 20™/PBS) containing phage at the previously determined concentrations. The dilution range of competitor protein extended over six orders of magnitude, starting at 5 μM for IGFBP-1 and 500 nM for IGFBP-3. After blocking, the plates containing immobilized target were washed with 0.05% TWEEN™/PBS buffer and subsequently incubated with 80 μl/well of the premixed phage-competitor solutions for 1 hour at room temperature. After washing, bound phage was detected with 80 μl/well of a solution containing a primary rabbit anti-phage polyclonal antibody and a secondary goat anti-rabbit monoclonal antibody-horseradish peroxidase conjugate in 0.5% TWEEN 20™/PBS. o-Phenylenediamine (Sigma) and tetramethylbenzidine (Kirkegaard and Perry) were used as chromogenic substrates, resulting in product detection at 492 and 450 nm, respectively. IC50 values were determined by fitting the binding data to a generic saturation curve (Lowman, in Cabilly, S. (ed.), supra). At least two individual clones of each IGF-1 mutant were assayed. Numbers in Table XIII represent mean±standard deviation of individually assessed IC50 values.

IGFBP-1 [1] = biological target: T2, IGFBP-1 (Homo sapiens, UniProt P08833); assay: competitive phage ELISA of IGF-1 mutants, IGFBP-1; type: binding; design: made in house; host or cells: CHO cells; conditions: for IC50: phage display, soluble IGFBP-1 competitor
T2 sequence (P08833 26-259): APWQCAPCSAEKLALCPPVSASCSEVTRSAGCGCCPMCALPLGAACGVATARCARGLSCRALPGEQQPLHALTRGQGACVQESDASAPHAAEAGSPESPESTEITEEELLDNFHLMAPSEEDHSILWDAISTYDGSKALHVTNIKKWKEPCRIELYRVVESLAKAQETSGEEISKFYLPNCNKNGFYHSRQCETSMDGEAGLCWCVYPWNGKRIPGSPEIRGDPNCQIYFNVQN
Experimental: as §1, §2

IGFBP-1 [2] = assay: competitive phage ELISA of IGF-1 mutants, IGFBP-1; type: binding, human; conditions: relative IC50 IGFBP-1/relative IC50 IGFBP-3
Experimental: as §1, §2

[3] = IC50 mut/IC50 G1S-A70V, listed as Ala(1-3)-IGF-1

Row | Molecule | IC50 (IGFBP-3) | IC50 (IGFBP-1 [1]) | relative specificity (IGFBP-1 [2]) | larger effects on IGFBP-3 than on IGFBP-1 binding (IGFBP-3) | increase in IGFBP-1 binding (IGFBP-1 [1]; phage ELISA) | IGFBP-3 relative IC50 (IGFBP-3; [3]) | IGFBP-1 Relative IC50 (IGFBP-1 [1]; [3])
1 | K65A: IGF-1 single alanine mutant | 0.69 ± 0.05 nM | 12.4 ± 0.6 nM | 1.6 | – | – | – | –
2 | E9A: IGF-1 single alanine mutant | 1.32 ± 0.3 nM | 8.6 ± 0.6 nM | 0.6 | about 2 fold | – | – | –
3 | G19A: IGF-1 single alanine mutant | 0.9 ± 0.28 nM | 11 ± 2.3 nM | 1.1 | – | – | – | –
4 | Y60A: IGF-1 single alanine mutant | 0.52 ± 0.01 nM | 6.6 ± 1.8 nM | 1.2 | – | – | – | –
5 | D45A: IGF-1 single alanine mutant | 0.69 ± 0.21 nM | 4.7 ± 0.7 nM | 0.6 | about 2 fold | approximately 2 fold | – | –
6 | N26A: IGF-1 single alanine mutant | 0.9 ± 0.07 nM | 9.1 ± 1.8 nM | 0.9 | – | – | – | –
7 | V17A: IGF-1 single alanine mutant | 3.67 ± 1.02 nM | 42.9 ± 3.2 nM | 1.1 | – | – | – | –
8 | R56A: IGF-1 single alanine mutant | 1 ± 0.19 nM | 13.1 ± 1.8 nM | 1.2 | – | – | – | –
9 | L54A: IGF-1 single alanine mutant | 1.83 ± 0.91 nM | 23.1 ± 12 nM | 1.2 | – | – | – | –
10 | P66A: IGF-1 single alanine mutant | 0.57 ± 0.12 nM | 9.4 ± 3.2 nM | 1.5 | – | – | – | –
11 | E58A: IGF-1 single alanine mutant | 1.03 ± 0.47 nM | 11.9 ± 1.8 nM | 1.1 | – | – | – | –
12 | S51A: IGF-1 single alanine mutant | 0.65 ± 0.35 nM | 13.4 ± 0.4 nM | 1.9 | – | – | – | –
13 | R21A: IGF-1 single alanine mutant | 0.58 ± 0.01 nM | 7.1 ± 1.6 nM | 1.1 | – | – | – | –
14 | B1 | – | – | 7.3 | – | – | no change in IGFBP-3 affinity | decreased IGFBP-1 affinity similar to E3A
